Holding throughout (assay): high-throughput RNA pulldown from lysate on Ni-NTA beads; HRP: 50 mM Tris pH 8, 150 mM NaCl, 1 mM beta-mercaptoethanol, 50 ug/ml BSA, 3 ug/ml yeast RNA, 0.5% heparin; ITC and FP: Tris pH 8, 200 mM KCl, 5% glycerol; MST: 50 mM Tris pH 8, 200 mM NaCl, 1 mM DTT, BSA, heparin, 0.05% Tween 20
Conditions in all cases: tags: N-terminal His-eGFP

The target in data set [1] is T1, GFP-9S library array, motif 4 ND N98S;D124N (synthetic construct, N98S;D124N).
T1 chain: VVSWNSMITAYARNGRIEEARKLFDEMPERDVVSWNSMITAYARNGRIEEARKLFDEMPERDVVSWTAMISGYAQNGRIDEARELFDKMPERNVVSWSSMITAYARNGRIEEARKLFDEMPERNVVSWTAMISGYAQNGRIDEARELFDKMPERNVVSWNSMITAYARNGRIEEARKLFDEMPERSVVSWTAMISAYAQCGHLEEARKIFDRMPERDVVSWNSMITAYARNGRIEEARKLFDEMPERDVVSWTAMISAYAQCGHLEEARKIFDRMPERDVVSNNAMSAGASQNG

Data set [2] addresses T2, GFP-9S library array, motif 4 ND N98Q;D124Q (synthetic construct, N98Q;D124Q).
T2 chain: T1 chain with S98Q, N124Q

The target of data set [3] is T3, GFP-9S library array, motif 4 ND N98Y;D124C (synthetic construct, N98Y;D124C).
T3 chain: T1 chain with S98Y, N124C

The target in data set [4] is T4, GFP-9S library array, motif 4 ND N98E;D124P (synthetic construct, N98E;D124P).
T4 chain: T1 chain with S98E, N124P

In data set [5] the target is T5, GFP-9S library array, motif 4 ND N98E;D124E (synthetic construct, N98E;D124E).
T5 chain: T1 chain with S98E, N124E

Substitutions are numbered along the chain they refer to.

B1: Cy5-rpoA (ssRNA)
RNA: AUUACACGUGA
Take B1: the Kd (usually the free concentration of one partner at which half of the binding sites on the other are occupied at equilibrium, for simple one-to-one binding) turned out to be 235 nM in data set [1] (label: 5' Cy5); 118 nM in data set [2] (label: 5' Cy5); 126 nM in data set [3] (label: 5' Cy5); 130 nM in data set [4] (label: 5' Cy5); 248 nM in data set [5] (label: 5' Cy5).

B2: Cy5-rpoA-G (ssRNA)
RNA: AUUAGACGUGA
For the molecule B2, the dissociation constant Kd in data set [1] (label: 5' Cy5) was 296 nM; in data set [2] (label: 5' Cy5), 95.5 nM; in data set [3] (label: 5' Cy5), 115 nM; in data set [4] (label: 5' Cy5) it was 102 nM; in data set [5] (label: 5' Cy5) it was 169 nM.

B3: IR-rpoA-A (ssRNA)
RNA: AUUAAACGUGA
As for B3, the Kd is 50.8 nM in data set [1] (label: 5' IRDye 800CW); 167 nM in data set [2] (label: 5' IRDye 800CW); 211 nM in data set [3] (label: 5' IRDye 800CW); 264 nM in data set [4] (label: 5' IRDye 800CW); 387 nM in data set [5] (label: 5' IRDye 800CW).

B4: IR-rpoA-U (ssRNA)
RNA: AUUAUACGUGA
For B4, the Kd in data set [1] (label: 5' IRDye 800CW) worked out at 272 nM; in data set [2] (label: 5' IRDye 800CW), 123 nM; in data set [3] (label: 5' IRDye 800CW), 271 nM; in data set [4] (label: 5' IRDye 800CW), 271 nM; in data set [5] (label: 5' IRDye 800CW), 675 nM.

Source of the values: PMC8809517, “Cofactor-independent RNA editing by a synthetic S-type PPR protein”.
